Source: paper PMC10104839, “Structural basis for sequence-specific recognition of guide and target strands by the Archaeoglobus fulgidus Argonaute protein” (Scientific Reports, 2023)

Experiments:
[1] = target: the molecule itself; assay: crystal structure; AfAgo-DNA oligoduplex complexes, 90-120 uM (as monomer), crystals grown at 4-8 °C; P1 crystals (5'P-ATC DNA) hold two DNA-bound subunits per asymmetric unit; in the P22(1)2(1) crystals (5'P-ATT DNA) the dimer is formed by a crystallographic symmetry operator
[2] = target: T1, AfAgo (Archaeoglobus fulgidus DSM 4304, UniProt O28951 1-427); assay: EMSA; EMSA: 40 mM Tris-acetate pH 8.4 (25 C), 1 mM EDTA, 100 mM K-acetate, 0.1 mg/ml BSA, 1 mM DTT, 10% glycerol; 5 nM NA (1 nM 32P + 4 nM cold); 10 min at 25 C; conditions: protein: recombinant; tags: N-terminal His (HisTrap; construct name NHis-Af1318); label: 5'-32P
T1 sequence: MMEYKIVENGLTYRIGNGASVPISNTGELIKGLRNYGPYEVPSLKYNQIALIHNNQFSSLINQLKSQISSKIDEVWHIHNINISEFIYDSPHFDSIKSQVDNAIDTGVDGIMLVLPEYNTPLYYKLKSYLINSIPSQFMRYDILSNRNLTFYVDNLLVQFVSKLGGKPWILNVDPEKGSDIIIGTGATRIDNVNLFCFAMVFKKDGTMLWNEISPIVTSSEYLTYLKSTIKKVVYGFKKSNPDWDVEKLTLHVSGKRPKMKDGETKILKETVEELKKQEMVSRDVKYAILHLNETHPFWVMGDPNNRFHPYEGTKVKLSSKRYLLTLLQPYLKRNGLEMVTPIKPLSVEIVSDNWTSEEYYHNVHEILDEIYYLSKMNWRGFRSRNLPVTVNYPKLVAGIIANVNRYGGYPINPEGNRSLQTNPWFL

[3] = target: T1, AfAgo; assay: X-ray crystallography; 5 mM Mg2+ in complex preparation; EMSA: 40 mM Tris-acetate pH 8.4 (25 C), 1 mM EDTA, 100 mM K-acetate, 0.1 mg/ml BSA, 1 mM DTT, 10% glycerol; 5 nM NA (1 nM 32P + 4 nM cold); 10 min at 25 C; conditions: protein: recombinant; tags: N-terminal His (HisTrap; construct name NHis-Af1318); blunt, self-complementary, 2 strand copies
[4] = target: T1, AfAgo; assay: X-ray crystallography; Mg2+; EMSA: 40 mM Tris-acetate pH 8.4 (25 C), 1 mM EDTA, 100 mM K-acetate, 0.1 mg/ml BSA, 1 mM DTT, 10% glycerol; 5 nM NA (1 nM 32P + 4 nM cold); 10 min at 25 C; conditions: protein: recombinant; tags: N-terminal His (HisTrap; construct name NHis-Af1318); blunt, self-complementary, 2 strand copies
[5] = target: T1, AfAgo; assay: EMSA; pre-formed duplex; EMSA: 40 mM Tris-acetate pH 8.4 (25 C), 1 mM EDTA, 100 mM K-acetate, 0.1 mg/ml BSA, 1 mM DTT, 10% glycerol; 5 nM NA (1 nM 32P + 4 nM cold); 10 min at 25 C; conditions: protein: recombinant; tags: N-terminal His (HisTrap; construct name NHis-Af1318); label: 5'-32P; blunt
[6] = target: T1, AfAgo; assay: EMSA; AfAgo pre-loaded with gRNA (1:2), target titrated; no heparin; EMSA: 40 mM Tris-acetate pH 8.4 (25 C), 1 mM EDTA, 100 mM K-acetate, 0.1 mg/ml BSA, 1 mM DTT, 10% glycerol; 5 nM NA (1 nM 32P + 4 nM cold); 10 min at 25 C; conditions: protein: recombinant; tags: N-terminal His (HisTrap; construct name NHis-Af1318); label: 5'-32P on target; guide nt 1-8 complementary to target 3' end; rest largely unpaired

B1: Archaeoglobus fulgidus Argonaute protein (AfAgo) (natural protein, Archaeoglobus fulgidus DSM 4304)
chain: T1 sequence
notes: AfAgo, hypothetical protein from Archaeoglobus fulgidus DSM 4304, GenBank NP_070147.1, cloned in pETDuet-1; also called AfPIWI; Af1318; source: E. coli, purified (Ni2+ HiTrap chelating, RNase A/T1 treatment, HiTrap Heparin, Superdex 200)
binding result [1]: binds

AGUGUACACGGCCGACU (ssRNA, 5'-phosphate) [MZ-1707 AGU ssRNA]
Kd [2]: 0.084 ± 0.0029 µM

GUUGUACACGGCCGAAC (ssRNA, 5'-phosphate) [MZ-1698 GUU ssRNA]
Kd [2]: 0.042 ± 0.0021 µM

B2: MZ-952 5'-ATC oligoduplex (dsDNA)
DNA 1: ATCGTGGCCACGAT
DNA 2: ATCGTGGCCACGAT
modifications: 5'-phosphate
binding result [3]: binds

CUUGUACACGGCCGAAG (ssRNA, 5'-phosphate) [MZ-1708 CUU ssRNA]
Kd [2]: 0.028 ± 0.0027 µM

ATTGTACACGGCCGAAT (ssDNA, 5'-phosphate) [MZ-1447 ATT ssDNA]
Kd [2]: 0.236 ± 0.035 µM

UUUGUACACGGCCGAAA (ssRNA, 5'-phosphate) [MZ-1699 UUU ssRNA]
Kd [2]: 0.015 ± 0.0028 µM

B3: MZ-1288 5'-ATT oligoduplex (dsDNA)
DNA 1: ATTGTGGCCACAAT
DNA 2: ATTGTGGCCACAAT
modifications: 5'-phosphate
binding result [4]: binds

B4: MZ-1289 5'-ATT oligoduplex (dsDNA)
DNA 1: ATTGTACGTACAAT
DNA 2: ATTGTACGTACAAT
modifications: 5'-phosphate
binding result [3]: binds

AUCGUACACGGCCGGAU (ssRNA, 5'-phosphate) [MZ-1706 AUC ssRNA]
Kd [2]: 0.016 ± 0.0021 µM

B5: MZ-1447/MZ-1455 dsDNA (dsDNA)
DNA 1: ATTGTACACGGCCGAAT
DNA 2: ATTCGGCCGTGTACAAT
modifications: 5'-phosphate
Kd [5]: 0.037 ± 0.017 µM

B6: gRNA MZ-1480 + target DNA MZ-1560 (8 nt) (DNA:RNA)
RNA: AUUGUACACGGCCGAAU
DNA: CGGAATATATGTACAAT
modifications: 5'-phosphate
Kd [6]: 0.0075 ± 0.0004 µM

B7: MZ-1480/MZ-1455 RNA/DNA heteroduplex (DNA:RNA)
RNA: AUUGUACACGGCCGAAU
DNA: ATTCGGCCGTGTACAAT
modifications: 5'-phosphate
Kd [5]: 0.0061 ± 4e-05 µM

B8: MZ-1480/MZ-1481 dsRNA (dsRNA)
RNA 1: AUUGUACACGGCCGAAU
RNA 2: AUUCGGCCGUGUACAAU
modifications: 5'-phosphate
Kd [5]: 0.015 ± 0.0009 µM

AUUGUACACGGCCGAAU (ssRNA, 5'-phosphate) [MZ-1480 5'P-AUU ssRNA]
Kd [2]: 0.0038 ± 0.0001 µM

B9: gRNA MZ-1480 + target RNA MZ-1556 (8 nt) (dsRNA)
RNA 1: AUUGUACACGGCCGAAU
RNA 2: CGGAAUAUAUGUACAAU
modifications: 5'-phosphate
Kd [6]: 0.033 ± 0.0042 µM
